Source: patent US20140087995A1 (published 2014)
Numbered stars: 1 amine (or outer) side, 2 acyl side, 3 side chain; on linkers, the order of the positions; unused ones are H or OH. Bridge positions count the residues as written; N and C are the ends. Side chains are listed from the residue outwards. Ends that are not written are not given here. * marks the point of attachment. C20 diacid = O=C(O)CCCCCCCCCCCCCCCCCCC(=O)*; γGlu = O=C(O)[C@H](CCC(=O)[*:2])N[*:1]

B1: N^ε1-[(4S)-4-carboxy-4-(19-carboxynonadecanoylamino)butanoyl]-[Glu14,Arg17,Pro21,Pro27,His34,Glu35]-h-amylin (peptide)
peptide: K([γGlu-C20 diacid])CNTATCATQRLAEFLRHSSPNFGAIPSSTNVGHETY-NH2
modifications: disulfide 2-7; N-terminus assumed
SMILES: CC[C@H](C)[C@H](NC(=O)[C@H](C)NC(=O)CNC(=O)[C@H](Cc1ccccc1)NC(=O)[C@H](CC(N)=O)NC(=O)[C@@H]1CCCN1C(=O)[C@H](CO)NC(=O)[C@H](CO)NC(=O)[C@H](Cc1c[nH]cn1)NC(=O)[C@H](CCCNC(=N)N)NC(=O)[C@H](CC(C)C)NC(=O)[C@H](Cc1ccccc1)NC(=O)[C@H](CCC(=O)O)NC(=O)[C@H](C)NC(=O)[C@H](CC(C)C)NC(=O)[C@H](CCCNC(=N)N)NC(=O)[C@H](CCC(N)=O)NC(=O)[C@@H](NC(=O)[C@H](C)NC(=O)[C@@H]1CSSC[C@H](NC(=O)[C@@H](N)CCCCNC(=O)CC[C@H](NC(=O)CCCCCCCCCCCCCCCCCCC(=O)O)C(=O)O)C(=O)N[C@@H](CC(N)=O)C(=O)N[C@@H]([C@@H](C)O)C(=O)N[C@@H](C)C(=O)N[C@@H]([C@@H](C)O)C(=O)N1)[C@@H](C)O)C(=O)N1CCC[C@H]1C(=O)N[C@@H](CO)C(=O)N[C@@H](CO)C(=O)N[C@H](C(=O)N[C@@H](CC(N)=O)C(=O)N[C@H](C(=O)NCC(=O)N[C@@H](Cc1c[nH]cn1)C(=O)N[C@@H](CCC(=O)O)C(=O)N[C@H](C(=O)N[C@@H](Cc1ccc(O)cc1)C(N)=O)[C@@H](C)O)C(C)C)[C@@H](C)O
notes: Synthetic acylated analogue of human amylin; also called compound 107
B2: N^ε1-[(4S)-4-carboxy-4-(19-carboxynonadecanoylamino)butanoyl]-[Glu14,Arg17,Pro21,Pro27,His35]-h-amylin (peptide)
peptide: K([γGlu-C20 diacid])CNTATCATQRLAEFLRHSSPNFGAIPSSTNVGSHTY-NH2
modifications: disulfide 2-7; N-terminus assumed
SMILES: CC[C@H](C)[C@H](NC(=O)[C@H](C)NC(=O)CNC(=O)[C@H](Cc1ccccc1)NC(=O)[C@H](CC(N)=O)NC(=O)[C@@H]1CCCN1C(=O)[C@H](CO)NC(=O)[C@H](CO)NC(=O)[C@H](Cc1c[nH]cn1)NC(=O)[C@H](CCCNC(=N)N)NC(=O)[C@H](CC(C)C)NC(=O)[C@H](Cc1ccccc1)NC(=O)[C@H](CCC(=O)O)NC(=O)[C@H](C)NC(=O)[C@H](CC(C)C)NC(=O)[C@H](CCCNC(=N)N)NC(=O)[C@H](CCC(N)=O)NC(=O)[C@@H](NC(=O)[C@H](C)NC(=O)[C@@H]1CSSC[C@H](NC(=O)[C@@H](N)CCCCNC(=O)CC[C@H](NC(=O)CCCCCCCCCCCCCCCCCCC(=O)O)C(=O)O)C(=O)N[C@@H](CC(N)=O)C(=O)N[C@@H]([C@@H](C)O)C(=O)N[C@@H](C)C(=O)N[C@@H]([C@@H](C)O)C(=O)N1)[C@@H](C)O)C(=O)N1CCC[C@H]1C(=O)N[C@@H](CO)C(=O)N[C@@H](CO)C(=O)N[C@H](C(=O)N[C@@H](CC(N)=O)C(=O)N[C@H](C(=O)NCC(=O)N[C@@H](CO)C(=O)N[C@@H](Cc1c[nH]cn1)C(=O)N[C@H](C(=O)N[C@@H](Cc1ccc(O)cc1)C(N)=O)[C@@H](C)O)C(C)C)[C@@H](C)O
notes: Synthetic acylated analogue of human amylin

Assays:
[1] = biological target: T1, rat calcitonin receptor (rat, UniProt P32214 25-516); assay: ratio of IC50 on rat calcitonin receptor to IC50 on rat amylin receptor (reference m40)
T1 construct: whole, on cells; Membranes of transiently transfected BHK tk'ts 13 cells; also called rCTR; rat calcitonin (a) receptor
T1 sequence (looked up): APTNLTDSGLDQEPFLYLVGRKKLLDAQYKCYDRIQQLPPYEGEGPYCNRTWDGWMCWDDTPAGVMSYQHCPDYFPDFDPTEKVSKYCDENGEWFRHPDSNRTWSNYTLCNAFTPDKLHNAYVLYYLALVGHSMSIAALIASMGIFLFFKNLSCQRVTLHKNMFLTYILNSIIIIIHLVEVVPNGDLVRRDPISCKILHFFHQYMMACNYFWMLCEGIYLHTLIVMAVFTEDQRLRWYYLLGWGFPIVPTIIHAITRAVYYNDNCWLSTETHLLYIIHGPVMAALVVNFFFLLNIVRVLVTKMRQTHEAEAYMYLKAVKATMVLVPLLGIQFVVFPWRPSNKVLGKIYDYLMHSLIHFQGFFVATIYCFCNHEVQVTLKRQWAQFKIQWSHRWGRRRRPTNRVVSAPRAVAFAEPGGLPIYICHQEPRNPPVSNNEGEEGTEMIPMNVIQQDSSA

[2] = biological target: T1, rat calcitonin receptor; assay: SPA competition with 125I-calcitonin on membranes of BHK tk'ts 13 cells with rat calcitonin receptor (Assay VIII)
[3] = biological target: T2, human calcitonin receptor (human, UniProt P30988 25-474); assay: ratio of IC50 on human calcitonin receptor to IC50 on human amylin receptor (reference m42), SPA competition
T2 construct: whole, on cells; Membranes of stably transfected cells; also called hCTR; hCT
T2 sequence (looked up): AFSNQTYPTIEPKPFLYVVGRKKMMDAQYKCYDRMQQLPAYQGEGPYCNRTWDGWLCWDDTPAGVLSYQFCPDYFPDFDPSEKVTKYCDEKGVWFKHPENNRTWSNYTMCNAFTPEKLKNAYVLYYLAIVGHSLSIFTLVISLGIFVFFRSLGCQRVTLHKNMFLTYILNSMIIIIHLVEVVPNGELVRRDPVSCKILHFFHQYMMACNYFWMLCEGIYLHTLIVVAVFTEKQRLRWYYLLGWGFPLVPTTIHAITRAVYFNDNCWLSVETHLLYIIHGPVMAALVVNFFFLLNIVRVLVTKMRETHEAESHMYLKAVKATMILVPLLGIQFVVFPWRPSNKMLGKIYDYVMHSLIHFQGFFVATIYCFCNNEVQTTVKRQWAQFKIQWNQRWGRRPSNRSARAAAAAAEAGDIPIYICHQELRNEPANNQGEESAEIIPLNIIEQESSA
Outline: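 IC₅₀ values were derived by one-site competition analysis of SPA counts. Cell membranes (35 ng/μL) with SPA beads were incubated with test compounds for 120 min at 25° C in Hepes buffer, pH 7.4, containing CaCl2, MgCl₂, OA and Tween20.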

[4] = biological target: T3, rat amylin receptor (rat calcitonin receptor + rat RAMP 3) (rat, UniProt P32214 25-516; Q9JJ73 23-147); assay: SPA competition with 125I-rat amylin on membranes of BHK tk'ts 13 cells with rat calcitonin receptor + rat RAMP3 (Assay VI)
T3 construct: whole, on cells; Membranes of transiently transfected BHK tk'ts 13 cells; also called rAmylin-R; rat amylin 3(a) receptor
T3 sequence (looked up) 1: T1 sequence (looked up)
T3 sequence (looked up) 2: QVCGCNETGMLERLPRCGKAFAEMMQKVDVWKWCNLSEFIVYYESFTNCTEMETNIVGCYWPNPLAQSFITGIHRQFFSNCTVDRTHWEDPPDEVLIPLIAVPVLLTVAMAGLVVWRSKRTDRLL

| Binder | Ratio rCT/rAmylin binding [1] | IC50 [2] [nM] | Ratio hCT/hAmylin binding [3] | IC50 [4] [nM] |
| --- | --- | --- | --- | --- |
| B1 | 34.6 | 33.1 | 11.1 | 0.958 |
| B2 | 22.7 | 26.3 | 26.4 | 1.16 |
